{
  "source": "patent US20250057951A1",
  "about": "“DISCERNIBLE CELL SURFACE PROTEIN VARIANTS OF CD117 FOR USE IN CELL THERAPY” (UNIVERSITÄT BASEL, priority 2021, published 2025)",
  "molecules": {"B1": {"name": "S261V (receptor)", "extracellular domains 1, 2 and 3": "QPSVSPGEPSPPSIHPGKSDLIVRVGDEIRLLCTDPGFVKWTFEILDETNENKQNEWITEKAEATNTGKYTCTNKHGLSNSIYVFVRDPAKLFLVDRSLYGKEDNDTLVRCPLTDPEVTNYSLKGCQGKPLPKDLRFIPDPKAGIMIKSVKRAYHRLCLHCSVDQEGKSVLSEKFILKVRPAFKAVPVVSVSKASYLLREGEEFTVTCTIKDVSSSVYSTWKRENSQTKLQEKYNVWHHGDFNYERQATLTISSARVNDSGVFMCYANNTFGSANVTTTLEVVD", "notes": "not in the list MOLECULES; also called human CD117 D1-2-3 variant S261V"}},
  "key": {"human wild-type CD117 [1]": {"molecular_target": "T1, human wild-type CD117 (human, UniProt P10721 26-976)", "T1 construct": "also called wt CD117; KIT", "experiment": "flow cytometry, HEK-293T with wt CD117 vs vector alone, IgG at 0.063 µg/mL", "procedure": "Binding of the antibodies to the transfected cells and the optimal assay conditions were evaluated in 384-well format. Detection of cellular expression was measured via high-throughput flow cytometry. Serial dilutions of each antibody were tested for immunoreactivity against cells expressing CD117 or vector alone. The optimal screening concentration for each antibody was determined based on the raw signal values and signal-to-background calculations. Each point represents the mean of four replicates."}, "[2]": {"molecular_target": "T2, human CD117 D1-2-3 variant S261Q (human, UniProt P10721 26-311, limits assumed)", "T2 construct": "Recombinant purified", "experiment": "BLI (Octet) as in Example 7, CD117 variant as analyte; affinity class as drawn"}, "[3]": {"molecular_target": "T3, human CD117 D1-2-3 variant S261E (human, UniProt P10721 26-311, limits assumed)", "T3 construct": "Recombinant purified", "experiment": "BLI (Octet) as in Example 7, CD117 variant as analyte; affinity class as drawn"}, "CD117 D1-2-3 wt": {"molecular_target": "T4, CD117 D1-2-3 wt (human, UniProt P10721 26-311, limits assumed)", "T4 construct": "also called human CD117 wt containing only domains 1, 2 and 3; wild type CD117 (recombinant purified)", "experiment": "BLI (Octet) as in Example 7, CD117 as analyte; affinity class as drawn, classes defined by the key on the sheet"}, "Y259G": {"molecular_target": "T5, Y259G (limits assumed)", "T5 construct": "not in the list MOLECULES; also called human CD117 D1-2-3 variant Y259G", "T5 extracellular domains 1, 2 and 3": "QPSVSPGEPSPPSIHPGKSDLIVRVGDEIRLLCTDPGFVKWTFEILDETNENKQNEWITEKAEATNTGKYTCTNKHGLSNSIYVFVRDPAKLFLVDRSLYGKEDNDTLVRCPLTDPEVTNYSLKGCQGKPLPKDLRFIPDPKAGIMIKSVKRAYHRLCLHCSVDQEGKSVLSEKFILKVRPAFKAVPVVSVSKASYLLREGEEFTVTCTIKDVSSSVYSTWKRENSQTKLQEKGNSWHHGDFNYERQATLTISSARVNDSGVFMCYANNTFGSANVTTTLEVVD", "experiment": "BLI (Octet) as in Example 7, CD117 variant as analyte; affinity class as drawn, classes defined by the key on the sheet", "procedure": "(§1) As an analyte, human CD117 wt and variants, containing only domains 1, 2 and 3 (CD117 D1-2-3), was titrated at 500 nM, 50 nM and 5 nM. […] Reference subtraction was performed against buffer only wells. AHC tips were regenerated using 10 mM Gly-HCl pH 1.7. Data were analyzed using the Octet Data Analysis software HT 12.0. Data were fitted (when possible) to a 1:1 binding model. Kinetic rates ka and ka were globally fitted. […] For this qualitative analysis, the binding level of the top analyte concentration at end of the association step was used."}, "S261V": {"molecular_target": "B1", "experiment": "BLI (Octet) as in Example 7, CD117 variant as analyte; affinity class as drawn, classes defined by the key on the sheet", "procedure": "as §1"}, "[4]": {"molecular_target": "human CD117 D1-2-3 variant Y259A (human, UniProt P10721 26-311, limits assumed)", "experiment": "BLI (Octet) as in Example 7, CD117 variant as analyte; affinity class as drawn, classes defined by the key on the sheet", "procedure": "as §1"}, "[5]": {"molecular_target": "human CD117 D1-2-3 variant Y259E (human, UniProt P10721 26-311, limits assumed)", "experiment": "BLI (Octet) as in Example 7, CD117 variant as analyte; affinity class as drawn, classes defined by the key on the sheet", "procedure": "as §1"}, "[6]": {"molecular_target": "human CD117 D1-2-3 variant Y259P (human, UniProt P10721 26-311, limits assumed)", "experiment": "BLI (Octet) as in Example 7, CD117 variant as analyte; affinity class as drawn, classes defined by the key on the sheet", "procedure": "as §1"}, "[7]": {"experiment": "Melting temperature of CD117 variants by differential scanning fluorimetry", "format": "physicochemical", "details": "Sypro Orange, PBS, 25 to 95° C.", "description": "Biophysical properties of the elected variants were tested. Aggregation of the elected CD117 variants was determined by preparative size exclusion chromatography. Yield of the elected CD117 variants was determined by dividing the amount of protein after purification by the production volume. Melting temperature was measured by differential scanning fluorimetry using Sypro Orange (Sigma, PN: S5692-50 ul) and an RT-PCR machine (C1000 Thermal Cycler, Biorad). The samples were measured at 0.25-1.0 mg/ml in PBS buffer in duplicates and Sypro Orange was added at a final concentration of 5×. […] The fluorescent increase was monitored as a function of temperature and the melting temperature was determined as the inflexion point of the sigmoidal curve and compared to wild-type CD117. Results are shown in FIGS. 4 (aggregation), 5 (yield) and 6 (melting temperature)."}, "Biotinylated Avitag-hSCF [8]": {"molecular_target": "T6, Biotinylated Avitag-hSCF (human, UniProt P21583 26-190, limits assumed, biotinylated Avitag)", "T6 construct": "Bought reagent; also called hSCF (Acros Biosystems SCF-H82E1)", "T6 sequence (P21583 26-190 limits assumed)": "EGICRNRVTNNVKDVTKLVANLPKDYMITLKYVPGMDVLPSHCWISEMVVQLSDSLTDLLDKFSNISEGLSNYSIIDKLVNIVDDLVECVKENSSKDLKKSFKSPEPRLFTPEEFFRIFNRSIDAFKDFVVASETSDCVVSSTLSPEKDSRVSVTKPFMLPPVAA", "experiment": "BLI (Octet), steady state: biotinylated SCF on streptavidin biosensor, CD117 D1-2-3 variant as analyte; KD relative to WT", "procedure": "(§2) Domains 4 and 5 were used as a negative, non-binding control.\n(§3) Association was monitored for 300 s and dissociation for 600 s. […] Reference subtraction was performed against buffer only wells. Biosensors were not regenerated and a new set of SA biosensors was used for each analyte. Data were analyzed using the Octet Data Analysis software HT 12.0. Steady state data analysis was performed due to the fast on/off nature of the interaction."}, "Refmab #3": {"test_system": "Refmab #3", "experiment": "Octet: binding of CD117 variants to Refmab #3", "details": "qualitative Octet analysis", "description": "A more sophisticated analysis of binding to the elected variants was performed with antibody Refmab #1. Binding of Refmab #1 to wt and variants (analyte) was measured in an Octet system RED96e or R8 at 25° C. with shaking at 1,000 rpm using 1× kinetic buffer (Sartorius, PN: 18-1105). First, the elected variants were screened for their ability to bind Refmab #1 using three different concentrations of analytes. Antibody Refmab #1 was captured by Anti-Human Fc capture biosensor (AHC) (Sartorius, PN: 18-5060) for 300 s at 0.5 to 1 μg/mL. As an analyte, human CD117 wt and variants, containing only domains 1, 2 and 3 (CD117 D1-2-3), was titrated at 500 nM, 50 nM and 5 nM. Association and dissociation of the analyte to Refmab #1 was monitored for 300 s and 900 s, respectively. Reference subtraction was performed against buffer only wells. AHC tips were regenerated using 10 mM Gly-HCl pH 1.7. Data were analyzed using the Octet Data Analysis software HT 12.0. Data were fitted (when possible) to a 1:1 binding model. Kinetic rates ka and […] globally fitted. Binding level of the elected variants were compared to wild type and are shown as percent in FIG. 7. For this qualitative analysis, the binding level of the top analyte concentration at end of the association step was used.\nA similar experiment to that in Example 7 was performed, but utilizing Refmab's #2 and #3."}, "Biotinylated Avitag-hSCF [9]": {"molecular_target": "T6, Biotinylated Avitag-hSCF", "experiment": "BLI (Octet), steady state: biotinylated SCF on streptavidin biosensor, CD117 D1-2-3 variant as analyte", "procedure": "as §2, §3"}, "human wild-type CD117 [10]": {"molecular_target": "T1, human wild-type CD117", "experiment": "flow cytometry, HEK-293T with wt CD117 vs vector alone, Fab at 0.50 µg/mL"}},
  "data": [
    {"molecule": "Refmab #3 (antibody, V domains shown) VH: EVQLVQSGAEVKKPGESLKISCKGSGYSFTNYWIGWVRQMPGKGLEWMAIINPRDSDTRYRPSFQGQVTISADKSISTAYLQWSSLKASDTAMYYCARHGRGYEGYEGAFDIWGQGTLVTVSS VL: DIQMTQSPSSLSASVGDRVTITCRSSQGIRSDLGWYQQKPGKAPKLLIYDASNLETGVPSRFSGSGSGTDFTLTISSLQPEDFATYYCQQANGFPLTFGGGTKVEIK", "values": [
      {"measurement": "Signal:Background", "setting": "human wild-type CD117 [1]", "value": "8 ratio to background"},
      {"measurement": "binding result", "setting": "[2]", "value": "no binding (tested: not shown on the sheet)"},
      {"measurement": "binding result", "setting": "[3]", "value": "no binding (tested: not shown on the sheet)"},
      {"measurement": "Kd", "setting": "CD117 D1-2-3 wt", "value": "< 5", "unit": "nM"},
      {"measurement": "Kd", "setting": "Y259G", "value": "> 50", "unit": "nM"},
      {"measurement": "Kd", "setting": "S261V", "value": "> 50", "unit": "nM"},
      {"measurement": "Kd", "setting": "[4]", "value": "> 50", "unit": "nM"},
      {"measurement": "Kd", "setting": "[5]", "value": "< 5", "unit": "nM"},
      {"measurement": "Kd", "setting": "[6]", "value": "> 50", "unit": "nM"}
    ]},
    {"molecule": "V120P (receptor, not in the list MOLECULES; also called human CD117 D1-2-3 variant V120P) extracellular domains 1, 2 and 3: QPSVSPGEPSPPSIHPGKSDLIVRVGDEIRLLCTDPGFVKWTFEILDETNENKQNEWITEKAEATNTGKYTCTNKHGLSNSIYVFVRDPAKLFLPDRSLYGKEDNDTLVRCPLTDPEVTNYSLKGCQGKPLPKDLRFIPDPKAGIMIKSVKRAYHRLCLHCSVDQEGKSVLSEKFILKVRPAFKAVPVVSVSKASYLLREGEEFTVTCTIKDVSSSVYSTWKRENSQTKLQEKYNSWHHGDFNYERQATLTISSARVNDSGVFMCYANNTFGSANVTTTLEVVD", "values": [
      {"measurement": "melting temperature", "setting": "[7]", "value": "two melting points were measured"},
      {"measurement": "binding result", "setting": "Biotinylated Avitag-hSCF [8]", "value": "binds"}
    ]},
    {"molecule": "B1", "values": [
      {"measurement": "binding to Refmab #3 compared to wild type CD117", "setting": "Refmab #3", "value": "strong decrease in binding"},
      {"measurement": "binding result", "setting": "Biotinylated Avitag-hSCF [9]", "value": "no binding (tested: 1000 nM (not on the sheet))"}
    ]},
    {"molecule": "Refmab #3 Fab fragment (Fab, V domains shown) VH: EVQLVQSGAEVKKPGESLKISCKGSGYSFTNYWIGWVRQMPGKGLEWMAIINPRDSDTRYRPSFQGQVTISADKSISTAYLQWSSLKASDTAMYYCARHGRGYEGYEGAFDIWGQGTLVTVSS VL: DIQMTQSPSSLSASVGDRVTITCRSSQGIRSDLGWYQQKPGKAPKLLIYDASNLETGVPSRFSGSGSGTDFTLTISSLQPEDFATYYCQQANGFPLTFGGGTKVEIK", "values": [
      {"measurement": "Signal:Background", "setting": "human wild-type CD117 [10]", "value": "6 ratio to background"}
    ]}
  ]
}
